Assay [1] addresses T1, gastrin-releasing peptide receptor (Homo sapiens, UniProt P30550). Put plainly: LigandTracer on PC-3 cells (1:2 model, KD2).
The target of assay [2] is T1, gastrin-releasing peptide receptor. Put plainly: LigandTracer on PC-3 cells (1:2 model, KD1).

Our source for the Kd values is paper PMC7912279 (2021).

T1 sequence (P30550 whole entry): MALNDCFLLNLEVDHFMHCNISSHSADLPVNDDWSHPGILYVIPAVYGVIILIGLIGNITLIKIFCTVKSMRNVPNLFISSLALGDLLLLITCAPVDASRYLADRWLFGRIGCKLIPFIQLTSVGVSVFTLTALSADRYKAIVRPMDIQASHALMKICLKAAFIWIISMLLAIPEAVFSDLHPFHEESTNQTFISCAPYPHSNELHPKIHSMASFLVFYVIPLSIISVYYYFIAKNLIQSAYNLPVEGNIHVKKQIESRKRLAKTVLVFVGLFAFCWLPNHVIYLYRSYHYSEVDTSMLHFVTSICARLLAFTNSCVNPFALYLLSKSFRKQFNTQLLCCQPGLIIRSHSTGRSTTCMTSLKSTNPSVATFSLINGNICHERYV

B1: maSES-PEG2-RM26 (peptide)
chain: SESFQWAVGHL
modifications: 99mTc, mercaptoacetyl-Ser-Glu-Ser-PEG2-D-Phe-Gln-Trp-Ala-Val-Gly-His-Sta-Leu-NH2
With B1, the Kd in assay [1] worked out at 1.4 nM; in assay [2], 0.849 nM.

B2: maSSS-PEG2-RM26 (peptide)
chain: SSSFQWAVGHL
modifications: 99mTc, mercaptoacetyl-Ser-Ser-Ser-PEG2-D-Phe-Gln-Trp-Ala-Val-Gly-His-Sta-Leu-NH2
Turning to B2, the results for the Kd in assay [1] and in assay [2] were 1.2 nM and 0.061 nM, respectively.
